Measurements published in publication PMC3245779.

Biological target: BSG-S variant E92K (Ok(a-) variant) (human)
Experiment: SPR

## PfRh5 (purified, SPR analyte) (from UniProt Q8IFM5 25-526) (ligand)
  fold lower affinity than the BSG reference sequence (equilibrium): 2 fold
